Data set [1] has as its target T1, hpTEN (Hansenula polymorpha (Ogataea …, UniProt R4IT35 1-159)).
T1 sequence: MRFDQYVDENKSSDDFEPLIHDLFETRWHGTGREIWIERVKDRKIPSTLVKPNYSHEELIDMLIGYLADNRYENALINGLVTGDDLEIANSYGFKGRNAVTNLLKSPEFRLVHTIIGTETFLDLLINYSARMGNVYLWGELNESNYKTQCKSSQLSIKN
The data set can be described thus: NMR titration.

Data set [2] has as its target T1, hpTEN. The data set is described as follows: MST.
For data set [3], the target named is T2, hpTEN N53A/S55A/R110A (Hansenula polymorpha (Ogataea …, UniProt R4IT35 1-159, N53A;S55A;R110A)).
T2 sequence: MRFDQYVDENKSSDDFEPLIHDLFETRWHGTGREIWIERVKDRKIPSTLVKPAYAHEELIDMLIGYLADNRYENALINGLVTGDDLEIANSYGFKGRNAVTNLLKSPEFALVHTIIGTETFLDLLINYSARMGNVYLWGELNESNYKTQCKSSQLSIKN
The data set can be described thus: MST.

Data set [4] concerns the target T3, hpTEN N53A/S55A/R110A/E119A (Hansenula polymorpha (Ogataea …, UniProt R4IT35 1-159, N53A;S55A;R110A;E119A)).
T3 sequence: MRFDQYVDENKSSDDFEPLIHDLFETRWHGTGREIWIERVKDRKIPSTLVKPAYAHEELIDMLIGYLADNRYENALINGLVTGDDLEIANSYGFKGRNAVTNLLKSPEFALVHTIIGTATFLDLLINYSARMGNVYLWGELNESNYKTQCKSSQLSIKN
The data set can be described thus: MST.

B1: E4 RNA-DNA heteroduplex 2 (DNA:RNA)
DNA: GTGGCGGGGTGGCG
?: CGCCACCCCGCCAC
Take B1: in data set [1], binding was put at a Kd of 900 ± 200 µM.

B2: E3 RNA-DNA heteroduplex 1 (DNA:RNA)
DNA: GGGTGGCG
?: CGCCACCC
Molecule B2 came in with a dissociation constant (Kd) in data set [1] of 1400 ± 300 µM.

B3: E9 RNA-DNA half-fork (DNA:RNA)
DNA: GGGTGGC
RNA: GCCACCCUUCGUCA
In data set [1], B3 displayed a Kd of 4000 ± 2000 µM. This Kd is about 2.9-fold higher than that of the molecule before.

B4: FAM-E4 heteroduplex (DNA:RNA)
DNA: GTGGCGGGGTGGCG
?: CGCCACCCCGCCAC
B4 yielded a dissociation constant Kd in data set [2] of 900 ± 200 µM.
In the case of CGCCACCCCGCCAC (ssRNA) [E5 ssRNA 2], the affinity in data set [1], expressed as Kd, was 5000 ± 3000 µM.

B5: FAM-E8 fork (DNA:RNA)
DNA: CTGTTTCGGGTGGC
RNA: GCCACCCUUCGUCA
As for B5, the Kd in data set [2] is 400 ± 200 µM; in data set [3], approximately 300 µM; in data set [4], approximately 300 µM.
On to GTGGCGGGGTGGCG (ssDNA) [FAM-ssDNA E2], for which the Kd in data set [2] was determined as 1000 ± 200 µM.
Consider CGCCACCC (ssRNA) [E1 ssRNA 1], for which the dissociation constant (Kd) in data set [1] was 5000 ± 2500 µM.
